Biological target: SARS-CoV-2 S蛋白(spike protein)，展示于假病毒表面 (SARS-CoV-2) (UniProt P0DTC2)
Assay: cell-based or functional assay

Substance “自组装铁蛋白融合纳米抗体Ferritin-H11-D4(家蚕杆状病毒表达系统表达)” has an IC50(假病毒中和试验) of 2.19 nM, a 中和活性，相对大肠杆菌表达的铁蛋白融合蛋白的倍数 of 20 fold and a 对假病毒的中和活性，相对单独表达的纳米抗体H11-D4的倍数 of 8 fold.
